Data on two molecules can be found in publication PMC7060403 (Journal of molecular biology, 2019).

The chains are these.
B2: full-length rabies virus phosphoprotein (RavP-FL, residues 1-297) (natural protein)
chain: MSKIFVNPSAIRAGLADLEMAEETVDLINRNIEDNQAHLQGEPIEVDNLPEDMKRLHLDDEKSSNLGEMVRVGEGKYREDFQMDEGEDPNLLFQSYLDNVGVQIVRQMRSGERFLKIWSQTVEEIVSYVTVNFPNPPRRSSEDKSTQTTGRELKKETTSAFSQRESQPSKARMVAQVAPGPPALEWSATNEEDDLSVEAEIAHQIAESFSKKYKFPSRSSGIFLYNFEQLKMNLDDIVKEAKNVPGVTRLAHDGSKIPLRCVLGWVALANSKKFQLLVEADKLSKIMQDDLNRYTSC

The target in data set [1] is T1, RavP-N (N-terminal region of the rabies virus phosphoprotein, residues 1-152) (rabies virus, UniProt P22363 1-152).
T1 sequence: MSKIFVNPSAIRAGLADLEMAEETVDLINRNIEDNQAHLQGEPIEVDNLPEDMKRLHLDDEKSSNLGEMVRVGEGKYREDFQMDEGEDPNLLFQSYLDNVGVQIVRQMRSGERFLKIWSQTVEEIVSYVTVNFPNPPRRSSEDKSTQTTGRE
Nature of the data set: ITC. For orientation: ITC needs no label: the signal is the heat of the interaction.

In data set [2] the target is B2. Description: ITC.
Data set [3] concerns the molecule itself. Nature of the data set: SEC-MALS.

B1: LC8 from Drosophila melanogaster (natural protein, UniProt Q24117 1-89, looked up)
chain: MSDRKAVIKNADMSEEMQQDAVDCATQALEKYNIEKDIAAYIKKEFDKKYNPTWHCIVGRNFGSYVTHETRHFIYFYLGQVAILLFKSG
Take B1: binding in data set [1] was characterised by a dissociation constant (Kd) of 30 nM. Besides, in data set [2], binding was put at a Kd of 82 nM and the stoichiometry N – broadly, a count of units in the complex or per binding partner – is 1.
In the case of B2, the “stoichiometry N” value in data set [3] amounted to 2.
